Measured values published in paper PMC2728148.
Read-outs that look alike come from different tables or passages of the source.

Legend:
Assay in all cases: EMSA
CSB wild-type [1] = target: T1, CSB wild-type (Homo sapiens, UniProt Q03468 1-1493)
CSB wild-type [2] = target: T1, CSB wild-type; remark: listed apart in the source
CSB wild-type [3] = target: T1, CSB wild-type; remark: listed apart in the source
CSB wild-type [4] = target: T1, CSB wild-type; remark: listed apart in the source

T1 sequence (Q03468 whole entry): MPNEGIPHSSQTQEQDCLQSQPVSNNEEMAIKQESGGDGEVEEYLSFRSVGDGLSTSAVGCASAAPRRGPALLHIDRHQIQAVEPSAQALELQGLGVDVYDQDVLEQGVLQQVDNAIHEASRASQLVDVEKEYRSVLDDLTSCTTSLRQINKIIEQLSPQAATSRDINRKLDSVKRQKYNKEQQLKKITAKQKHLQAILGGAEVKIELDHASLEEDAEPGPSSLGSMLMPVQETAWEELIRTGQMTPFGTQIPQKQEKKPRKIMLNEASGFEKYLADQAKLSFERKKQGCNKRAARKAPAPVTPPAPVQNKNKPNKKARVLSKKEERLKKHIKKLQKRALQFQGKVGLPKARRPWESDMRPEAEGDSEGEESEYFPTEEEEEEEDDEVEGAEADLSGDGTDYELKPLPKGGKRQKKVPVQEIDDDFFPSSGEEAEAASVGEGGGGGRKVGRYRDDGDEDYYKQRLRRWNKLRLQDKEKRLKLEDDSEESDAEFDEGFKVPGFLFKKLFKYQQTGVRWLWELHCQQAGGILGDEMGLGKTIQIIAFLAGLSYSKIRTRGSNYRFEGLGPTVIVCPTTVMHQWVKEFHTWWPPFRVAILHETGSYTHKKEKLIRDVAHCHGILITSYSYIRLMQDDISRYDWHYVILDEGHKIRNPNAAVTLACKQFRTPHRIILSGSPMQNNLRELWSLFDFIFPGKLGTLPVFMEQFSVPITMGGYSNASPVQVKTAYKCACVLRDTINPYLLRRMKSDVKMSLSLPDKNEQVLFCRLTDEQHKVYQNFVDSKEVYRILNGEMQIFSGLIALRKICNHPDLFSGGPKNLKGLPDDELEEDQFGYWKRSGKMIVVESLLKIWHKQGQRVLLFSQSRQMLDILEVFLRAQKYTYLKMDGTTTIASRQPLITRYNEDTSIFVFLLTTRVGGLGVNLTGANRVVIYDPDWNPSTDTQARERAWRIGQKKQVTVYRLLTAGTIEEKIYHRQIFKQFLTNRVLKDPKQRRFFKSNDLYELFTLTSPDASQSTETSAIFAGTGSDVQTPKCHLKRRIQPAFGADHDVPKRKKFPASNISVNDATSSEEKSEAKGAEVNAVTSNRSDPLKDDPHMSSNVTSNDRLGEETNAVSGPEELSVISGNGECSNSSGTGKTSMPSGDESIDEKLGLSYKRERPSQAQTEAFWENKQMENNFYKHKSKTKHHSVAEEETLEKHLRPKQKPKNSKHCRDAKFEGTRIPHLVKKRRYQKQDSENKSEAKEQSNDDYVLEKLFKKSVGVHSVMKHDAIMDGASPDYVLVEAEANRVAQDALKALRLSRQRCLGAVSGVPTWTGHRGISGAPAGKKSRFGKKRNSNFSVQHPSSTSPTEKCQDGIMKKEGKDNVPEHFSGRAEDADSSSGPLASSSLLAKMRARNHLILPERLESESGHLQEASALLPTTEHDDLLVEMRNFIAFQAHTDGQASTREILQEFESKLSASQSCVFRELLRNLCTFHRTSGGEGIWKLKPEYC

B1: 34G/34C (dsDNA)
DNA 1: GTACCCGGGGATCCGTACGGCGCATCAGCTGCAG
DNA 2: CTGCAGCTGATGCGCCGTACGGATCCCCGGGTAC
CSB wild-type [1]
  Kd: 13.7 ± 1.1 nM
CSB wild-type [2]
  Kd: 20.5 ± 5.2 nM
CSB wild-type [3]
  Kd: 10.7 ± 0.6 nM

B2: DNA50/DNA49 fork (dsDNA)
DNA 1: GGGACGCGTCGGCCTGGCACGTCGGCCGCTGCGGCCAGGCACCCGATGGC
DNA 2: TTTGTTTGTTTGTTTGTTTGTTTGCCGACGTGCCAGGCCGACGCGTCCC
CSB wild-type [4]
  Kd: 5.9 ± 0.6 nM

B3: DNA50/RNA49 fork (DNA:RNA)
DNA: GGGACGCGTCGGCCTGGCACGTCGGCCGCTGCGGCCAGGCACCCGATGGC
RNA: UUUGUUUGUUUGUUUGUUUGUUUGCCGACGUGCCAGGCCGACGCGUCCC
CSB wild-type [4]
  Kd: 13.4 ± 3.3 nM

B4: RNA50/RNA49 fork (dsRNA)
RNA 1: GGGACGCGUCGGCCUGGCACGUCGGCCGCUGCGGCCAGGCACCCGAUGGC
RNA 2: UUUGUUUGUUUGUUUGUUUGUUUGCCGACGUGCCAGGCCGACGCGUCCC
CSB wild-type [4]
  Kd: 3.6 ± 1.5 nM
